From FireProtDB (doi:10.1016/s0006-3495(99)76955-9)

Conditions: Pseudomonas aeruginosa (strain ATCC 15692 / DSM 22644 / CIP 104116 / JCM 14847 / LMG 12228 / 1C / PRS 101 / PAO1); pH 7.03; 20 °C; Thermal; DSC; phosphate buffer 10 mM; sodium chloride 40 microM; reversible: no; whole UniProt chain shown

B1: Azurin wild type, P00282 (protein)
chain: MLRKLAAVSLLSLLSAPLLAAECSVDIQGNDQMQFNTNAITVDKSCKQFTVNLSHPGNLPKNVMGHNWVLSTAADMQGVVTDGMASGLDKDYLKPDDSRVIAHTKLIGSGEKDSVTFDVSKLKEGEQYMFFCTFPGHSALMKGTLTLK
With B1 the “unfolding enthalpy (calorimetric)” value was 14.6 kcal/mol and the unfolding free energy was 14.3 kcal/mol.
